Data from PMC7359698.

Target: ephrin-A1-S6 (human ephrin-A1 with an internal S6 peptide tag, GPI-anchored) (human) (UniProt P20827)
Test: FRET or BRET; heteroFRET by flow cytometry (sensitised emission, compensated; efficiency from median fluorescence intensities); live HEK293 cells in suspension in DPBS + 0.5% BSA, S6-tagged receptor labelled with A547 and A647; for T-cadherin-S6 also followed in time after 10 μg/mL adiponectin

Question: For “ephrin-A1-S6 (human ephrin-A1 with an internal S6 peptide tag, GPI-anchored) (from UniProt P20827 19-182) (ligand)”, which FRET efficacy is on record?
Answer: 14%
